Target: Sho1 SH3 (SHO1_YEAST), P40073
Experiment: SPOT array

Chain of Sho1 SH3 (SHO1_YEAST), P40073 (P40073 295-366): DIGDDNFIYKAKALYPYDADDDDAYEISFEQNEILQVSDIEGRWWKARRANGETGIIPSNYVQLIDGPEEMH

normalised SPOT signal, Boehringer light units (BLU); mean over the file's lines of this peptide | Binder
3960 | KRTPKIPEKDVKSD [223-236 Hypothetical ORF]
174 | IINPDTPHRRIFNQ [264-277 AP endonuclease]
60.6 | KFIPNKPYRQFNTW [339-352 gamma-aminobutyrate (GABA) transaminase (4-aminobutyrate aminotransferase)]
164 | IQHPFLPRKIPIIT [408-421 mitochondrial and cytoplasmic valyl-tRNA synthetase]
86.1 | IPTPSKPLKKRKKR [390-403 serine/threonine-rich membrane protein]
290 | LLKPETPSKRLVIR [249-262 kinesin-related protein involved in mitosis]
8750 | IMPPPKPFRHGLDS [517-530 Hypothetical ORF]
530 | IVNPFIPRRPYSNV [859-872 Hypothetical ORF]
977 | LRLPEIPPKGDFDV [1327-1340 mitohcondrial RNA polymerase]
159 | KYDPDNPNKDKLGT
175 | LDYPKAPIKLTMKS [160-173 Hypothetical ORF]
94.4 | KLEPENPQKPSNTH [238-251 Hypothetical ORF]
125 | IIFPTSPTKLTFSN [112-125 Cell cycle-dependent filament between nuclei]
250 | IFGPFGPMKEVKIL [144-157 nuclear shuttling protein with an RNA recognition motif]
1220 | KIMPPTPAKKVEFI [312-325 putative GTP-exchange protein]
203 | KKLPTGPSKKRQRK [1280-1293 transcriptional regulator]
91.7 | LPPPRSPNRPTLSD [363-376 Hypothetical ORF]
159 | ILKPDIPLRNMLLR [138-151 Hypothetical ORF]
152 | KKDPNAPKRRLSAY [21-34 11-kDa nonhistone chromosomal protein]
173 | LPAPHRPEKYKERF [67-80 Hypothetical ORF]

normalised SPOT signal, Boehringer light units (BLU); mean over the file's lines of this peptide | Binder
110 | LNSPDLPERTKLRN [445-458 Septin homolog]
206 | KNLPLNPSKKLEGK [313-326 Hypothetical ORF]
172 | LPVPPPPVRPSISF [239-252 RNA polymerase II large subunit]
25.5 | KDHPYDPEKDSVLK [97-110 vacuolar ATPase V1 domain subunit F (14 kDa)]
338 | LIMPIYPYRLVSTI [525-538 potential membrane glycoprotein with strong similarity to Vth2 and Pep1/Vps10]
87.7 | IFPPLNPARTSLNS [172-185 homologous to Ssf2p;possibly involved in mating]
122 | LRDPVIPIKLAAEK [2564-2577 translational activator of GCN4 through activation of GCN2 in response to starvation]
224 | KKYPRKPKKNLNLG [336-349 Hypothetical ORF]
93 | LDDPFTPPRWLHHI
237 | KFHPPEPYKGKGIY [187-200 Mitochondrial ribosomal protein MRPL6 (YmL6)]
352 | IIIPPIPSKHSLLK [171-184 Hypothetical ORF]
80.2 | LIPPGFPTKNYPPG [185-198 Hypothetical ORF]
184 | LRKPRAPMRNVIIT [449-462 cytochrome oxidase assembly factor]
94.7 | IHSPRIPSKDEFIA
79.6 | KISPSAPSKDSFTK [350-363 nuclear pore protein]
102 | LSIPDLPLRIHNQT [13-26 Hypothetical ORF]
61.6 | LHGPFKPVKSSNGE [25-38 Hypothetical ORF]
113 | IIFPYDPLKLGTHA [509-522 Weak similarity to Pta1p (pre-tRNA processing protein)]
64.6 | KKDPFPPPKDLLVQ [421-434 110 kDa subunit of the centromere binding factor CBF3]
242 | ILLPPLPERAYIMD [459-472 Hypothetical ORF]

normalised SPOT signal, Boehringer light units (BLU); mean over the file's lines of this peptide | Binder
16.2 | LPVPQLPPKLLVYP [17-30 RNA polymerase II-associated protein]
216 | KPDPESPSKLRHYE [851-864 involved in cell wall biogenesis]
56.4 | ISTPPPPPKMAIPA [390-403 " type II PI(4)P5-kinase (PIP4,5 kinase) similar to human PIP5K-II"]
112 | LRRPIFPGRDYRHQ [218-231 cdc2+/CDC28 related kinase with positive role in conjugation]
129 | ILSPGYPNKSFNNK [653-666 heat shock transcription factor]
121 | LMPPDSPPRMTENT [1790-1803 "RAP1-interacting factor, involved in establishment of repressed chromatin"]
182 | IFGPSFPFRSHIDV [170-183 Possible RNA binding protein. Homolog of Whi3.]
281 | ITLPRRPAKKIQLG [41-54 Mitochondrial ribosomal protein MRPL36 (YmL36)]
109 | LPPPIIPLRKYGHN [693-706 Pho85 kinase inhibitor]
85.4 | KSFPPPPLKPGQKT [84-97 Hypothetical ORF]
137 | KSSPWSPYKVEKVL [161-174 Mitotic spindle protein involved in chromosome segregation.]
31800 | KNLPTIPIRLSGID [143-156 Hypothetical ORF]
2110 | KLRPDLPVKNFVVK [641-654 subunit of assimilatory sulfite reductase]
106 | LAPPLSPTKPSPLH [253-266 Hypothetical ORF]
141 | INQPSTPKKLKRKS [316-329 PLasmid Maintenance]
155 | LLPPTDPFRRKHEQ [63-76 ribosomal protein (weak similarity)]
48.1 | LQIPPLPLKLLTPV [307-320 encodes the cytoplasmic trifunctional enzyme C1-tetrahydrofolate synthase]
103 | LIDPSTPDKAAKKD
175 | KWEPSTPQRNGPIL [158-171 Hypothetical ORF]

Reference: article PMC314469, “Protein Interaction Networks by Proteome Peptide Scanning” (PLoS Biology, 2004)
